Patent US20190031783A1 (AbbVie / Abbott, published 2019)

Experiments:
[1] = target: T1, purified recombinant human DLL4 extracellular domain (ECD) (human, UniProt Q9NR61 27-529); assay: SPR (Biacore), DVD captured via anti-human Fc, DLL4 ECD injected, 25 C
T1 construct: extracellular domain; also called human DLL4529; huDLL4
Procedure: For DLL4 binding kinetic measurements the assay buffer was HBS-EPB: 10 mM Hepes, pH7.5, 150 mM NaCl, 3 mM EDTA, 0.005% Tween 20, 0.1 mg/ml BSA (Sigma A7906). For VEGF binding kinetic measurements the assay buffer was HBS-EP+(3N01B): 10 mM Hepes, pH7.5, 300 mM NaCl, 3 mM EDTA, 0.05% Tween 20, 0.1 mg/ml BSA (Sigma A7906). For example, approximately 9000 RU of goat anti-human Fc specific polyclonal antibody (Thermo Fisher Scientific Inc., Rockford, Ill.) diluted in 10 mM sodium acetate (pH 4.5) is directly immobilized across a CM5 research grade biosensor chip using a standard amine coupling kit according to manufacturer's instructions and procedures at 25 ug/ml. Unreacted moieties on the biosensor surface are blocked with ethanolamine. For kinetic analysis, rate equations derived from the 1:1 Langmuir binding model are fitted simultaneously to multiple antigen injections (using global fit analysis) with the use of Scrubber 2 (BioLogic Software), Biacore Biaevaluation 4.0.1 software or Biacore T100 Evaluation software. Purified antibodies are diluted in running buffer for capture across goat anti-human Fc reaction surfaces. Antibodies to be captured as a ligand (1 ug/ml) are injected over reaction matrices at a flow rate of 10 ul/min. During the assay, all measurements are referenced against the capture surface alone (i.e. with no captured antibody). […] The equilibrium dissociation constant KD (M) of the reaction between antibodies and the target antigen is then calculated from the kinetic rate constants by the following formula: KD=Koff/Kₒₙ. Binding is recorded as a function of time and kinetic rate constants are calculated.

[2] = target: T1, purified recombinant human DLL4 …; assay: Notch competition ELISA: inhibition of biotin DLL4 ECD binding to coated human Notch-1
Procedure: Plates were then washed 3× with wash buffer (PBS, 0.05% Tween-20) and blocked with 200 μl/well blocking buffer (D-PBS, 1% BSA, 1 mM CaCl₂, 0.05% Tween-20) for 1 hour at 25° C. […] Assay plates were washed after blocking, and incubated with DLL4/antibody mixtures (100 μl/well, 1 hour at 25° C. with shaking). Plates were washed again and 100 μl/well of streptavidin conjugated with HRP (Fitzgerald #65R-S104PHRPx, diluted 1:5,000 in blocking buffer) was added for 1 hour at 25° C. with shaking. After a final wash, plates were developed using 100 μl/well substrate (TMB Sigma #T8665), and the reaction was stopped using 100 μl/well 1N HCl, and the absorbance was read at 450 nm. Data was analyzed using Graphpad Prism software and IC₅₀ values were reported as the concentration of antibody required to achieve 50% reduction of DLL4 binding to Notch1.

| Binder | Kd [1] [nM] | IC50 [2] [nM] |
| --- | --- | --- |
| Av-GS14-h1A11.1 (bispecific antibody, human IgG1, DVD-Ig) VH: EVQLVESGGGLVQPGGSLRLSCAASGYTFTNYGMNWVRQAPGKGLEWVGWINTYTGEPTYAADFKRRFTFSLDTSKSTAYLQMNSLRAEDTAVYYCAKYPHYYGSSHWYFDVWGQGTLVTVSSGGGGSGGGGSGGGGEVQLVESGGGLVQPGGSLRLSCAASGFTFSNFPMAWVRQAPGKGLEWVATISSSDGTTYYRDSVKGRFTISRDNAKNSLYLQMNSLRAEDTAVYYCARGYYNSPFAYWGQGTLVTVSS VL: DIQMTQSPSSLSASVGDRVTITCSASQDISNYLNWYQQKPGKAPKVLIYFTSSLHSGVPSRFSGSGSGTDFTLTISSLQPEDFATYYCQQYSTVPWTFGQGTKVEIKRGGSGGGGSGGGSDIQMTQSPSSLSASVGDRVTITCRASEDIYSNLAWYQQKPGKAPKLLIYDTNNLADGVPSRFSGSGSGTDFTLTISSLQPEDFATYYCQQYNNYPPTFGQGTKLEIKR | 34 | 1.54 |
| Av-GS6-h1A11.1 (bispecific antibody, human IgG1, DVD-Ig) VH: EVQLVESGGGLVQPGGSLRLSCAASGYTFTNYGMNWVRQAPGKGLEWVGWINTYTGEPTYAADFKRRFTFSLDTSKSTAYLQMNSLRAEDTAVYYCAKYPHYYGSSHWYFDVWGQGTLVTVSSGGGGSGEVQLVESGGGLVQPGGSLRLSCAASGFTFSNFPMAWVRQAPGKGLEWVATISSSDGTTYYRDSVKGRFTISRDNAKNSLYLQMNSLRAEDTAVYYCARGYYNSPFAYWGQGTLVTVSS VL: DIQMTQSPSSLSASVGDRVTITCSASQDISNYLNWYQQKPGKAPKVLIYFTSSLHSGVPSRFSGSGSGTDFTLTISSLQPEDFATYYCQQYSTVPWTFGQGTKVEIKRGGSGGDIQMTQSPSSLSASVGDRVTITCRASEDIYSNLAWYQQKPGKAPKLLIYDTNNLADGVPSRFSGSGSGTDFTLTISSLQPEDFATYYCQQYNNYPPTFGQGTKLEIKR | 50 | 3.41 |
| Av-LL-h1A11.1 (bispecific antibody, human IgG1, DVD-Ig) VH: EVQLVESGGGLVQPGGSLRLSCAASGYTFTNYGMNWVRQAPGKGLEWVGWINTYTGEPTYAADFKRRFTFSLDTSKSTAYLQMNSLRAEDTAVYYCAKYPHYYGSSHWYFDVWGQGTLVTVSSASTKGPSVFPLAPEVQLVESGGGLVQPGGSLRLSCAASGFTFSNFPMAWVRQAPGKGLEWVATISSSDGTTYYRDSVKGRFTISRDNAKNSLYLQMNSLRAEDTAVYYCARGYYNSPFAYWGQGTLVTVSS VL: DIQMTQSPSSLSASVGDRVTITCSASQDISNYLNWYQQKPGKAPKVLIYFTSSLHSGVPSRFSGSGSGTDFTLTISSLQPEDFATYYCQQYSTVPWTFGQGTKVEIKRTVAAPSVFIFPPDIQMTQSPSSLSASVGDRVTITCRASEDIYSNLAWYQQKPGKAPKLLIYDTNNLADGVPSRFSGSGSGTDFTLTISSLQPEDFATYYCQQYNNYPPTFGQGTKLEIKR |  | 2.43 |

Second part, the binder after the results:

| Kd [1] [nM] | IC50 [2] [nM] | Binder |
| --- | --- | --- |
| 9.3 | 0.65 | h1A11.1-GS10-Av (bispecific antibody, human IgG1, DVD-Ig; also called h1A11.GS10-Av) VH: EVQLVESGGGLVQPGGSLRLSCAASGFTFSNFPMAWVRQAPGKGLEWVATISSSDGTTYYRDSVKGRFTISRDNAKNSLYLQMNSLRAEDTAVYYCARGYYNSPFAYWGQGTLVTVSSGGGGSGGGGSEVQLVESGGGLVQPGGSLRLSCAASGYTFTNYGMNWVRQAPGKGLEWVGWINTYTGEPTYAADFKRRFTFSLDTSKSTAYLQMNSLRAEDTAVYYCAKYPHYYGSSHWYFDVWGQGTLVTVSS VL: DIQMTQSPSSLSASVGDRVTITCRASEDIYSNLAWYQQKPGKAPKLLIYDTNNLADGVPSRFSGSGSGTDFTLTISSLQPEDFATYYCQQYNNYPPTFGQGTKLEIKRGGSGGGGSGDIQMTQSPSSLSASVGDRVTITCSASQDISNYLNWYQQKPGKAPKVLIYFTSSLHSGVPSRFSGSGSGTDFTLTISSLQPEDFATYYCQQYSTVPWTFGQGTKVEIKR |
| 9.7 | 0.68 | h1A11.1-GS14-Av (bispecific antibody, human IgG1, DVD-Ig) VH: EVQLVESGGGLVQPGGSLRLSCAASGFTFSNFPMAWVRQAPGKGLEWVATISSSDGTTYYRDSVKGRFTISRDNAKNSLYLQMNSLRAEDTAVYYCARGYYNSPFAYWGQGTLVTVSSGGGGSGGGGSGGGGEVQLVESGGGLVQPGGSLRLSCAASGYTFTNYGMNWVRQAPGKGLEWVGWINTYTGEPTYAADFKRRFTFSLDTSKSTAYLQMNSLRAEDTAVYYCAKYPHYYGSSHWYFDVWGQGTLVTVSS VL: DIQMTQSPSSLSASVGDRVTITCRASEDIYSNLAWYQQKPGKAPKLLIYDTNNLADGVPSRFSGSGSGTDFTLTISSLQPEDFATYYCQQYNNYPPTFGQGTKLEIKRGGSGGGGSGGGGSDIQMTQSPSSLSASVGDRVTITCSASQDISNYLNWYQQKPGKAPKVLIYFTSSLHSGVPSRFSGSGSGTDFTLTISSLQPEDFATYYCQQYSTVPWTFGQGTKVEIKR |
|  | 3500 | Av-SS-h1A11.1 (bispecific antibody, human IgG1, DVD-Ig) VH: EVQLVESGGGLVQPGGSLRLSCAASGYTFTNYGMNWVRQAPGKGLEWVGWINTYTGEPTYAADFKRRFTFSLDTSKSTAYLQMNSLRAEDTAVYYCAKYPHYYGSSHWYFDVWGQGTLVTVSSASTKGPEVQLVESGGGLVQPGGSLRLSCAASGFTFSNFPMAWVRQAPGKGLEWVATISSSDGTTYYRDSVKGRFTISRDNAKNSLYLQMNSLRAEDTAVYYCARGYYNSPFAYWGQGTLVTVSS VL: DIQMTQSPSSLSASVGDRVTITCSASQDISNYLNWYQQKPGKAPKVLIYFTSSLHSGVPSRFSGSGSGTDFTLTISSLQPEDFATYYCQQYSTVPWTFGQGTKVEIKRTVAAPDIQMTQSPSSLSASVGDRVTITCRASEDIYSNLAWYQQKPGKAPKLLIYDTNNLADGVPSRFSGSGSGTDFTLTISSLQPEDFATYYCQQYNNYPPTFGQGTKLEIKR |
|  | 2.77 | Av-LS-h1A11.1 (bispecific antibody, human IgG1, DVD-Ig) VH: EVQLVESGGGLVQPGGSLRLSCAASGYTFTNYGMNWVRQAPGKGLEWVGWINTYTGEPTYAADFKRRFTFSLDTSKSTAYLQMNSLRAEDTAVYYCAKYPHYYGSSHWYFDVWGQGTLVTVSSASTKGPSVFPLAPEVQLVESGGGLVQPGGSLRLSCAASGFTFSNFPMAWVRQAPGKGLEWVATISSSDGTTYYRDSVKGRFTISRDNAKNSLYLQMNSLRAEDTAVYYCARGYYNSPFAYWGQGTLVTVSS VL: DIQMTQSPSSLSASVGDRVTITCSASQDISNYLNWYQQKPGKAPKVLIYFTSSLHSGVPSRFSGSGSGTDFTLTISSLQPEDFATYYCQQYSTVPWTFGQGTKVEIKRTVAAPDIQMTQSPSSLSASVGDRVTITCRASEDIYSNLAWYQQKPGKAPKLLIYDTNNLADGVPSRFSGSGSGTDFTLTISSLQPEDFATYYCQQYNNYPPTFGQGTKLEIKR |
|  | 7.38 | Av-SL-h1A11.1 (bispecific antibody, human IgG1, DVD-Ig) VH: EVQLVESGGGLVQPGGSLRLSCAASGYTFTNYGMNWVRQAPGKGLEWVGWINTYTGEPTYAADFKRRFTFSLDTSKSTAYLQMNSLRAEDTAVYYCAKYPHYYGSSHWYFDVWGQGTLVTVSSASTKGPEVQLVESGGGLVQPGGSLRLSCAASGFTFSNFPMAWVRQAPGKGLEWVATISSSDGTTYYRDSVKGRFTISRDNAKNSLYLQMNSLRAEDTAVYYCARGYYNSPFAYWGQGTLVTVSS VL: DIQMTQSPSSLSASVGDRVTITCSASQDISNYLNWYQQKPGKAPKVLIYFTSSLHSGVPSRFSGSGSGTDFTLTISSLQPEDFATYYCQQYSTVPWTFGQGTKVEIKRTVAAPSVFIFPPDIQMTQSPSSLSASVGDRVTITCRASEDIYSNLAWYQQKPGKAPKLLIYDTNNLADGVPSRFSGSGSGTDFTLTISSLQPEDFATYYCQQYNNYPPTFGQGTKLEIKR |
